Measurements from paper doi:10.1101/2023.06.07.543977.

Biological target: T1, mKu (mycobacterial Ku) (Mycobacterium tuberculosis, UniProt P9WKD9 1-273)
T1 sequence: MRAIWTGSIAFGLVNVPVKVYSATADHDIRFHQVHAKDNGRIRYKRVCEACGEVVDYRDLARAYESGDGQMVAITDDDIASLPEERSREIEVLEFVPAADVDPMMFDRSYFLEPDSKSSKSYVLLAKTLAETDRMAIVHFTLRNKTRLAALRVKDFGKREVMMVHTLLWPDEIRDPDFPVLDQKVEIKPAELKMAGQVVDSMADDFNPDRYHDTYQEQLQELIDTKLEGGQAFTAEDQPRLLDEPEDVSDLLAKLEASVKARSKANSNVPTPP
Assay: SPR

B1: 20 bp dsDNA (dsDNA)
DNA 1: GTCGTAGCCCACCTGACCGT
DNA 2: ACGGTCAGGTGGGCTACGAC
apparent K (half saturation): 10.8 ± 2.47 nM

B2: 29 bp dsDNA (dsDNA)
DNA 1: CGAACCAGCTGGCGCATAGCCGCGCTATC
DNA 2: GATAGCGCGGCTATGCGCCAGCTGGTTCG
apparent K (half saturation): 17.9 ± 4.58 nM
